Where two headings read alike, the source gives them in different places.
Experiments:
Experiment in all cases: cryo-EM structure
[1] = target: Angavokeley (AngV) fusion (F) protein ectodomain (Angavokeley virus (AngV))
[2] = target: Angavokeley (AngV) fusion (F) protein ectodomain (Angavokeley virus (AngV)); remark: listed apart in the source
[3] = target: Hendravirus alpha2 -F protein (Hendra virus) (UniProt O89342)

Substance: Angavokeley (AngV) fusion (F) protein ectodomain (domain or fragment)
- stoichiometry N [1]: 6
- stoichiometry N [2]: 3

Substance: Hendravirus alpha2 -F protein (from UniProt O89342 27-494) (domain or fragment)
- stoichiometry N [3]: 6
